Molecular target: Cy3B-SSB (W88C SSB labeled with Cy3B, one per monomer) W89C (UniProt P0AGE0)
Assay: bulk fluorescence

## ssDNA (unspecified, bulk assay)
  Kd: < 2.5 nM

— paper PMC2910053
